# B1: TPR t1 (parent)
# chain: GACCAAUCUGCCCUCAGAGCUCGAGAACAUCUUCGGAUGCAGAGGAGGCAGGCUUCGGUGGCGCGAUAGCGCCAACGUCCUCAACCUCCAAUGCAUCCCACCACAUGAUGAUGCCUGAAGAGCCUUGGUUUUUUG
# Variants of: B1
# Assay: polymerase ribozyme fitness, log enrichment relative to wild type (log ratio); higher = more active; in vitro selection for triplet polymerase activity
# Outline: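 Fitness measures genotype enrichment against wild-type enrichment on a logarithmic scale, with inverse-variance-weighted averaging of replicates. The logarithm is base 2, and genotypes were kept only with ≥10 input reads and ≥1 read per output in Illumina sequencing. The sequenced libraries came from one triplicate in vitro selection round, including frozen incubation at −7 °C, of PCR-built, transcribed mutant libraries of each subunit of a heterodimeric triplet polymerase ribozyme.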
row,Variant,polymerase ribozyme fitness (log ratio)
1,U9C A26G A27U U54A C82G,-5.13
2,U9C A26G C72G C79U,-0.65
3,U9C A43G G61A C89U,-1.55
4,C8U C56U C70U C73A,-2.03
5,U9A G44U,-0.143
6,U9C A119U C123U,2.07
7,U9A G48C C72U U78C C86A C101A C114U C124U,-3.88
8,U9C A41C A118U A119G,0.0807
9,C8U U9C C12U G17A G19A G44U C114G,-5.67
10,C8U U21G,-0.546
11,U9A C62A C86A C98U,-2.77
12,U9A C70U A74G C104A C123A,-3.22
13,C8U G44A G69C C89U A118U C124G G127C,0.163
14,U9A G39U G48A U109A,-6.15
15,U9A C12U A37G,-0.0422
16,C8U G45A G52C C123G,-0.41
17,U9C A41G C64U C86A,-0.494
18,C8U U78C U109A,-5.42
19,U9A C12A C124U,2.01
20,U9A G77U C123U,1.84
21,U9A U14A A75U C124U G127C,-0.619
22,U9A C13U C62A C79G C94A U132A,-4.57
23,U9A C13A A16U C34G G48C G69U C80U,-4.42
24,U9A C104A,-0.737

row,Variant,polymerase ribozyme fitness (log ratio)
1,C8U C86A G113C U130G,-2.85
2,U9A A24G,-0.725
3,U9C A50U G52C,-2.28
4,C8U G58C U59A G60A,-0.843
5,U9A G42A U129A,-2.88
6,C8U C72U U78C U81A A83G,-0.492
7,U9C A41U C72U U78A G93C,-1.36
8,U9A C11U C40A U134G,-0.696
9,C8U C28U C73U,-1.68
10,U9A G61A A100U,0.389
11,U9C C11A A18C C53G C80G C99A G110U,-6.83
12,C8U U81A A84G,-0.331
13,C8U C34A G44U G61U U130G,-4.49
14,C8U G47U A90G G113C,-2.16
15,U9A G47A U96G,-0.976
16,C8U C34A A119G,-1.9
17,C8U G45A G52C C72A C123G,1.37
18,U9A A50U C62G,-2.77
19,U9C A105U U126A U132A,-2.93
20,C8U G10A A95C U130G,-1.3
21,C8U G63U C102G C114A U125A,-6.46
22,U9A G25A,-5.66
23,C8U G77A A84C A91C C98U,-2.47
24,U9A A118G,0.108

row,Variant,polymerase ribozyme fitness (log ratio)
1,U9A G44U C123A,0.274
2,U9A C62G C79G C115U,-4.57
3,C8U G110A,0.177
4,U9A A27C G117C,-5.71
5,C8U C53U C76U,0.843
6,C8U G47C C53G U109G,-6.29
7,C8U G23A,-4.81
8,C8U C62A C114G U126A,-3.89
9,C8U G52C U78C G110C,-5.87
10,U9A C89G,-2.53
11,C8U G39A C94G C99U,-4.71
12,C8U C72U,0.252
13,C8U G61A A95U G120A,1.6
14,U9C A37U G63A C80U C82G C85G,-2.21
15,C8U G36A,-0.0427
16,U9A G77U,1.05
17,C8U G44A G60U A121C G122U,-1.02
18,C8U C70U G110A,-1.5
19,C8U U9C C12U G71U U132A,0.729
20,C8U U21A C56U C114A G128A,-2.5
21,C8U C49G U106A G110A,-1.48
22,C8U G77A,0.143
23,U9A C62A C88U U92A,-4.26
24,U9A G17U A74C C82A U87C,-0.851

row,Variant,polymerase ribozyme fitness (log ratio)
1,U9A G45U,-2.23
2,C8U G10U A27U U59C,-3.06
3,C8U G36C G45U C64U C101A,-1.02
4,U9A C12A C88U G127A,-2.52
5,C8U G52U G61C C73G U87C U130A,-2.65
6,U9A A16U A43U A91G,-0.987
7,U9A G110U,-0.815
8,C8U U55G G77U G113C,-1.83
9,C8U C101A U112A,1.32
10,U9C A27G G45A G57U C115G,-3.94
11,U9A A46U G77C G122A,-0.702
12,C8U C94U,0.9
13,U9A U78A G93C C124G G128C,-2.15
14,U9A A37U U81G,-2.86
15,U9A A46G C53G C72U C82A G113U,-1.9
16,U9A C13U G25A A29G C53A C114G,-6.86
17,C8U U9G G60A,-0.0864
18,C8U C49U,0.318
19,C8U C62U C86U C101A,-1.69
20,C8U C72A C76A,-1.75
21,C8U C70G U125A U130G,-3.05
22,U9A G51U G52U U116A,-3.29
23,U9A G44U C56U G122A,-0.525
24,U9A G113A U130G,-0.107

row,Variant,polymerase ribozyme fitness (log ratio)
1,C8U G63U A90G C115A,-0.076
2,U9A U21G A41U G45A U130G,-4.18
3,C8U G42U C73G,-2.13
4,U9A G113A,-0.103
5,C8U G51A A121C U131G,-0.214
6,U9A A27C G71A G117C,-6.31
7,C8U U9C G52U U55C U59C,0.781
8,C8U C56G,-0.121
9,U9A C98G,-5.74
10,C8U C53U U92G U131G,-2.8
11,U9A G77U U131A,0.362
12,U9C A90C,-0.197
13,U9A G48C C86A C101A C114U C124U,-2.84
14,C8U G44C G63A,-0.547
15,C8U G39C G63A U92G,-3.5
16,U9A A16G A18U A43G C70A C72U,-3.21
17,C8U C73U,1.07
18,C8U G44U,-1.28
19,U9A C31G,-4.11
20,U9A A46C A50C G61U C82G,-1.26
21,U9A A43U C76A C85G G120A U130C,-1.48
22,C8U G36U G58C A91C U96C A111U A121U,-5.93
23,U9A C12U,-0.242
24,U9C A26U G57C A84U,-3.11

row,Variant,polymerase ribozyme fitness (log ratio)
1,U9A U30C G47U,-3.54
2,C8U G61C,-1.18
3,C8U G44A C101U U116C,-1.58
4,U9A C11U C76U A84C,-0.377
5,C8U U59A G60C G117U U131C,-0.987
6,U9A A46G C53G G113U,-1.54
7,C8U C40G G61A G120A,1.65
8,U9A G39A,0.185
9,C8U G71A C98U G117U U130C,-4.47
10,U9A G93A U106C,-0.115
11,U9A G52A C56A,-1.03
12,C8U G63A,0.00664
13,C8U G63C,0.00815
14,C8U G93A,0.108
15,U9A A46U U59C U78A C89G U109A,-7.76
16,U9A G51C C86G U87A,-5.3
17,C8U C62G U106G U112A,-2.63
18,U9A G19C C40G A43U G60U,-3.06
19,C8U C98U,-1.28
20,U9A G47U C79A A83C,-3.93
21,C8U G63C C123A U132A,1.06
22,U9C A37U,0.172
23,C8U C34A G44U G61A U130G,-4.33
24,U9A C124U,1.21

row,Variant,polymerase ribozyme fitness (log ratio)
1,C8U C101U,0.244
2,C8U C101A,-0.038
3,U9A C12U A27C C53U,-2.63
4,C8U G19C G44U C56A C89G,-2.64
5,U9A C13G G61U C123G,1.99
6,C8U G10A G42A G45A C53U C85A,-4.02
7,C8U C64A U112A,-4.99
8,U9A G110A A111U C115U,-6.7
9,C8U U9G C12A G58A,0.43
10,C8U G45C,-0.263
11,U9A G71A,0.174
12,U9C A27C,-2.15
13,C8U C85A A91U,-1.64
14,C8U G117C,-3.02
15,C8U G117A,0.294
16,U9A A26C C40U U87C U125G,-5.19
17,U9A G52A G65C U126C,-5.92
18,U9A C49U,-0.088
19,C8U C70G A111U,-6.19
20,U9A C56A G61C G77U G117U,-2.13
21,C8U G19A A46U C73A G110U,-5.19
22,U9A C12U G61C,-1.89
23,U9A C62U G63A A95C A103G U109A,-7.15
